doi:10.1101/2022.11.05.515280
Where two headings read alike, the source gives them in different places. One block for each molecule: values may come before it.

Legend:
[1] = biological target: human Mcl-1 ΔPESTΔTM (human); assay: NMR titration
[2] = biological target: human Mcl-1 ΔPESTΔTM (human); assay: NMR titration; remark: listed apart in the source
[3] = biological target: human Mcl-1 ΔPESTΔTM (human); assay: SEC + other: SAXS

stoichiometry N [3]: 1
B2: full length human TCTP (Translationally Controlled Tumour Protein) (natural protein)
chain: MIIYRDLISHDEMFSDIYKIREIADGLCLEVEGKMVSRTEGNIDDSLIGGNASAEGPEGEGTESTVITGVDIVMNHHLQETSFTKEAYKKYIKDYMKSIKGKLEEQRPERVKPFMTGAAEQIKHILANFKNYQFFIGENMNPDGMVALLDYREDGVTPYMIFFKDGLEMEKC

Kd [2]: 7.9 µM
fold weaker relative affinity than TCTPBH3D16I and MuleBH3 [2]: > 10 fold
B3: TCTP BH3-like peptide (TCTPBH3) (peptide)
peptide: DEMFSDIYKIREIADGLCLEVE

Continued, molecule first:

Molecule: Mule BH3 peptide (MuleBH3)
relative population of Mcl-1 bound, in the mix of three peptides [1]: 55%

B1: TCTP BH3-like peptide D16I mutant (TCTP_(BH3D16I)) (peptide)
peptide: DEMFSIIYKIREIADGLCLEVE
relative population of Mcl-1 bound, in the mix of three peptides [2]: 45%
